The values that follow come from the supplement of paper PMC10724198.

± gives the standard deviation of the averaged measurements.
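Further: PSI is a weighted mean of sequencing reads over stability bins, variants kept only with over 10 reads, mCherry proximal and sfGFP distal, peptide attached via GGGS linker.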

The test system of this data set is Saccharomyces cerevisiae. The data set is described as follows: protein stability index of tFT-peptide fusion (C-terminal peptide) (PSI (0-1 scale)); higher = more stable (slower turnover). The following applies: genetic background: wild type; temperature: 30 C.
As to LAAVAAGDVGGG, the protein stability index was 0.674 ± 0.035. LALTFRLQAPLA displayed a protein stability index of 0.695 ± 0.017. For LANAGLVLPRIP the value was 0.679 ± 0.0071; for LAPPIRPCPPSP, 0.681 ± 0.056; for LAPTNAPYPHPM, 0.658 ± 0.015. For LASCVTRTMAWD the value was 0.664 ± 0.071; for LASREFGVFCIW, 0.648 ± 0.057; for LATGCVGVRGHE, 0.719 ± 0.023. For LAVILLVLPGND the value was 0.563 ± 0.011. Turning to LAWFDLAPSTLP, the protein stability index came to 0.827 ± 0.14. With LAWYPGYCYCCL the figure was 0.598 ± 0.0089.

The sequence LAYAPLNGDVPY came in with a protein stability index of 0.68 ± 0.01.

Consider LCAETGVGPGLW, for which the protein stability index amounted to 0.724 ± 0.016. For LCGFLPSFHLLY the value was 0.679 ± 0.0088; for LCHESFDGTFVN, 0.72 ± 0.022; for LCLCGLLGSGPT, 0.736 ± 0.042. As to LCLFGGLVAFWC, the protein stability index stood at 0.585 ± 0.027. For LCPALLFLLARS the value was 0.5141 ± 0.0033; for LCPDFSLQWSFD, 0.759 ± 0.019; for LCPPLPPSPPRS, 0.70073 ± 0.00018.

Sequence LCQWLIEFTVLF had a protein stability index of 0.515 ± 0.025. With LCSPSPPCPRLP the figure was 0.748 ± 0.025; with LDEQKLKLPPVK, 0.736 ± 0.024. In turn, LDFLLSMVHGKK yielded a protein stability index of 0.702 ± 0.022. For LDGLNLVRVVGV the value was 0.674 ± 0.044; for LDINWVGGAPEV, 0.727 ± 0.042; for LDKLLFIFNCGC, 0.66 ± 0.044.

LDRGPFADQAPH displayed a protein stability index of 0.678 ± 0.012. The sequence LEGNRGYKRNGK registered a protein stability index of 0.637 ± 0.084. With LELTTIRHNHEL the figure was 0.695 ± 0.029; with LERSTCYPREPM, 0.69 ± 0.1; with LESLPSPLHLPM, 0.629 ± 0.026. With LETIFEDFGKYR the figure was 0.794 ± 0.092; with LFAGPPTGPNAR, 0.802 ± 0.12.

In turn, LFANGSGSSTSR showed a protein stability index of 0.715 ± 0.031. With LFCARNGILLSV the figure was 0.516 ± 0.0084; with LFCSSHRMQTKL, 0.746 ± 0.029. In turn, LFFLLCHVGSFR displayed a protein stability index of 0.516 ± 0.0085. For LFGFFLECCFCT the value was 0.599 ± 0.052; for LFGGCRLVGSVV, 0.711 ± 0.023; for LFGLCLAGFCVP, 0.625 ± 0.046. For LFIVSFSPGFPF the value was 0.635 ± 0.11; for LFLELSSCVGVF, 0.62 ± 0.024; for LFLFPVCFTNDL, 0.661 ± 0.025.

Turning to LFLFSSAGYPNS, the protein stability index was determined as 0.661 ± 0.1.

In the case of LFLLALFPPPAS, the protein stability index came out at 0.738 ± 0.013.

LFLSFFLPSYNT yielded a protein stability index of 0.66 ± 0.026. For LFLTFYSPLSFT the value was 0.646 ± 0.022; for LFPCFSFPFSFL, 0.587 ± 0.055. For LFPHPGPHHPSV the value was 0.716 ± 0.016.

As to LFPPAFSAFLPF, the protein stability index was 0.725 ± 0.024. Take LFPPTPRPLPLP: the protein stability index is 0.654 ± 0.023. With LFRRVASILPRD the figure was 0.668 ± 0.013; with LFSCVFFLCLNF, 0.512 ± 0.0074; with LFTDIQAPSVKH, 0.788 ± 0.18. Regarding LFVLSLHLPCFG, the protein stability index is 0.498 ± 0.02. For LFVSPRPFRSVL the value was 0.7495 ± 0.0063; for LFWFSRVVCMSF, 0.564 ± 0.048; for LFYFDTWFFPPP, 0.762 ± 0.097. For LFYVNIPTQFVR the value was 0.564 ± 0.014. Sequence LGCLVGVRFLGF yielded a protein stability index of 0.642 ± 0.032.

In the case of LGDGAVVAEESG, the protein stability index worked out at 0.642 ± 0.062. For LGDLVFGLSVWL, the protein stability index was found to be 0.684 ± 0.035.

As to LGFLLSLVCLLG, the protein stability index was found to be 0.532 ± 0.015. For LGGEVDLGPARG the value was 0.662 ± 0.092; for LGGTRRVGLALV, 0.685 ± 0.057; for LGGWWVSRVGEP, 0.732 ± 0.037. On to LGKGRYNIKINK, for which the protein stability index was found to be 0.695 ± 0.016. With LGLPSSLGPSDF the figure was 0.682 ± 0.011; with LGLRSGQGPVTL, 0.7746 ± 0.00092; with LGLRSRIYMLVD, 0.664 ± 0.0083. With LGLSTVKLEVPW the figure was 0.7731 ± 0.0016; with LGMGWGSGLERW, 0.826 ± 0.12.

As to LGPRVGDPDGRF, the protein stability index was 0.742 ± 0.019. With LGPSPQRLRYPT the figure was 0.65 ± 0.035.

In the case of LGSILSSSSSRL, the protein stability index is 0.699 ± 0.018. For LGSSQVGLVRRV the value was 0.663 ± 0.011; for LGSVLSLVRFGR, 0.677 ± 0.016. As to LGVSVVEPGRVR, the protein stability index is 0.702 ± 0.04. For LGVVCVGWLGGL the value was 0.664 ± 0.03.
